# Measured values from article PMC8798045.
# What was measured:
# [1] = target: Microtubules polymerized from bovine brain tubulin (bovine) (UniProt Q6B856); experiment: single-molecule TIRF microscopy (dwell times); 5 nM 647-SSNA1 (100% labeled) alone on surface-bound GMPCPP-stabilized microtubule seeds; 0-5 min after SSNA1 addition; 5 fps; 35°C
# [2] = target: Microtubules polymerized from bovine brain tubulin (bovine) (UniProt Q6B856); experiment: TIRF microscopy; dynamic microtubules grown from GMPCPP seeds with 9 µM tubulin and 5 µM 488-SSNA1 (7% labeled), imaged 60 min; SSNA1 intensity at the microtubule end region; 35°C
# [3] = target: Microtubules polymerized from bovine brain tubulin (bovine) (UniProt Q6B856); experiment: single-molecule TIRF microscopy (dwell times); spiking: 5 nM 647-SSNA1 with 1 µM 488-SSNA1 on surface-bound GMPCPP-stabilized microtubule seeds; 0-5 min after SSNA1 addition; 5 fps; 35°C
# [4] = target: Microtubules polymerized from bovine brain tubulin (bovine) (UniProt Q6B856); experiment: single-molecule TIRF microscopy (dwell times); spiking: 5 nM 647-SSNA1 with 1 µM 488-SSNA1 on surface-bound GMPCPP-stabilized microtubule seeds; 5-10 min after SSNA1 addition; 5 fps; 35°C
# [5] = target: Microtubules polymerized from bovine brain tubulin (bovine) (UniProt Q6B856); experiment: single-molecule TIRF microscopy (dwell times); 5 nM 647-SSNA1 (100% labeled) alone on surface-bound GMPCPP-stabilized microtubule seeds; 5-10 min after SSNA1 addition; 5 fps; 35°C
substance,measurement,setting,value
Human 6His-SSNA1 (Sjögren's syndrome nuclear autoantigen-1) (from UniProt O43805 1-119) (natural protein),mean single-molecule dwell time,[1],12 s
same,"SSNA1 fluorescence intensity at the microtubule end region, 3 min",[2],0.33 a.u.
same,association rate (events µm^–1 nM^–1 s^–1),[3],0.00096
same,mean single-molecule dwell time,[3],19 s
same,association rate (events µm^–1 nM^–1 s^–1),[4],0.0024
same,mean single-molecule dwell time,[4],39 s
same,mean single-molecule dwell time,[5],10 s
